One block for each substance: values may come before it.
Tests used:
Format in all cases: cell-based
U-CDC37 = molecular target: T1, U-CDC37 (Homo sapiens, UniProt P63279+Q16543); assay: Trans-SUMOylation by U-CDC37; parameters: key: (++), strong TransSUMOylation; (+), TransSUMOylation; (+/−) weak TransSUMOylation; (−) no detectable TransSUMOylation; settings: protein 2 construct coexpressed with U-CDC37 and EGFP-SUMO1 in HEK293; western blot; Table 2
T1 construct: expressed in transfected cells; host or cells: HEK293
Text: (§1) To identify new SUMOylation substrates and to study the function of SUMOylation the Ubc9/substrate dimerisation-dependent SUMOylation system (USDDS) was developed which consists of fusions of the SUMOylation substrate and of the SUMO-conjugating enzyme Ubc9 to the chemically activatable heterodimerisation domains FKBP and FRB, respectively, as shown in FIG. 2. When the substrate protein fused to FKBP is coexpressed with Ubc9-FRB, treatment of HEK293 cells with the rapamycin-related dimerizer AP21967 induces SUMOylation of the substrate protein fused to FKBP at its specific SUMOylation site. […] Dependent on an EcoRl site in the coding sequence, seven C-terminal amino acids of the human STAT1a in the STAT1-FKBP/FRB fusion proteins are missing. For the SUMOylation analysis HEK293 (human embryonic kidney cells) cells have been used. HEK293 cells were cultured in Dulbecco's modified Eagle's medium with high glucose, complemented with 10% fetal calf serum, 2 mM L-glutamine, 100 U/ml penicillin and […] streptomycin. […]
(§2) As shown above, the SUMOylation of a protein of interest can be induced by the heterodimerisation with a binding protein fused to Ubc9. […] Therefore the protein pairs were coexpressed with EGFP-SUMO1 in HEK293 cells and after 24h the transfectants were lysed and the protein extracts were analyzed in western blots. […]

CDK4-U = molecular target: T2, CDK4-U (Homo sapiens, UniProt P11802+P63279); assay: Trans-SUMOylation by CDK4-U; parameters: key: (++), strong TransSUMOylation; (+), TransSUMOylation; (+/−) weak TransSUMOylation; (−) no detectable TransSUMOylation; settings: protein 2 construct coexpressed with CDK4-U and EGFP-SUMO1 in HEK293; western blot; Table 1
T2 construct: expressed in transfected cells; host or cells: HEK293
Text: as §1, §2

CRSP9-U = molecular target: T3, CRSP9-U (Homo sapiens, UniProt O43513+P63279); assay: Trans-SUMOylation by CRSP9-U; parameters: key: (++), strong TransSUMOylation; (+), TransSUMOylation; (+/−) weak TransSUMOylation; (−) no detectable TransSUMOylation; settings: protein 2 construct coexpressed with CRSP9-U and EGFP-SUMO1 in HEK293; western blot; Table 2
T3 construct: Ubc9 (fusion partner); expressed in transfected cells; host or cells: HEK293
Text: as §1, §2

U-ERK2 = molecular target: T4, U-ERK2 (Homo sapiens, UniProt P28482+P63279); assay: Trans-SUMOylation by U-ERK2; settings: protein 2 construct coexpressed with U-ERK2 and EGFP-SUMO1 in HEK293; western blot; Table 2
T4 construct: expressed in transfected cells; host or cells: HEK293

ERK2-U = molecular target: T5, ERK2-U (Homo sapiens, UniProt P28482+P63279); assay: Trans-SUMOylation by ERK2-U; settings: protein 2 construct coexpressed with ERK2-U and EGFP-SUMO1 in HEK293; western blot; Table 2
T5 construct: expressed in transfected cells; host or cells: HEK293

MEK2-U = molecular target: T6, MEK2-U (Homo sapiens, UniProt P36507+P63279); assay: Trans-SUMOylation by MEK2-U; parameters: key: (++), strong TransSUMOylation; (+), TransSUMOylation; (+/−) weak TransSUMOylation; (−) no detectable TransSUMOylation; settings: protein 2 construct coexpressed with MEK2-U and EGFP-SUMO1 in HEK293; western blot; Table 1
T6 construct: expressed in transfected cells; host or cells: HEK293
Text: as §1, §2

U-p38α = molecular target: T7, U-p38α (Homo sapiens, UniProt P63279+Q16539); assay: Trans-SUMOylation by U-p38α; settings: protein 2 construct coexpressed with U-p38α and EGFP-SUMO1 in HEK293; western blot; Table 1
T7 construct: expressed in transfected cells; host or cells: HEK293

U-MEK2 = molecular target: T8, U-MEK2 (Homo sapiens, UniProt P36507+P63279); assay: Trans-SUMOylation by U-MEK2; parameters: key: (++), strong TransSUMOylation; (+), TransSUMOylation; (+/−) weak TransSUMOylation; (−) no detectable TransSUMOylation; settings: protein 2 construct coexpressed with U-MEK2 and EGFP-SUMO1 in HEK293; western blot; Table 1
T8 construct: expressed in transfected cells; host or cells: HEK293
Text: as §1, §2

U-MK5 = molecular target: T9, U-MK5 (Homo sapiens, UniProt P63279+Q8IW41); assay: Trans-SUMOylation by U-MK5; parameters: key: (++), strong TransSUMOylation; (+), TransSUMOylation; (+/−) weak TransSUMOylation; (−) no detectable TransSUMOylation; settings: protein 2 construct coexpressed with U-MK5 and EGFP-SUMO1 in HEK293; western blot; Table 2
T9 construct: expressed in transfected cells; host or cells: HEK293
Text: To identify new SUMOylation substrates and to study the function of SUMOylation the Ubc9/substrate dimerisation-dependent SUMOylation system (USDDS) was developed which consists of fusions of the SUMOylation substrate and of the SUMO-conjugating enzyme Ubc9 to the chemically activatable heterodimerisation domains FKBP and FRB, respectively, as shown in FIG. 2. When the substrate protein fused to FKBP is coexpressed with Ubc9-FRB, treatment of HEK293 cells with the rapamycin-related dimerizer AP21967 induces SUMOylation of the substrate protein fused to FKBP at its specific SUMOylation site. […] Dependent on an EcoRl site in the coding sequence, seven C-terminal amino acids of the human STAT1a in the STAT1-FKBP/FRB fusion proteins are missing. For the SUMOylation analysis HEK293 (human embryonic kidney cells) cells have been used. HEK293 cells were cultured in Dulbecco's modified Eagle's medium with high glucose, complemented with 10% fetal calf serum, 2 mM L-glutamine, 100 U/ml penicillin and […] streptomycin. We performed transfection of HEK293 cells using the polyethylenimine transfection reagent. HEK293 cells of a fresh confluent 10 cm plate were transferred on a 12-well plate. After 12-24 h incubation about 70% cell confluence is reached. For each well 45 μl of serum/antibiotic free DMEM medium is mixed with 750 ng of the transfection-purity expression vector DNA (all together 47 μl) and vortexed. Then, 3 μl of vortexed polyethylenimin stock solution (1 mg/ml) is added and the mixture is vortexed. After incubation at room temperature for 10 min 450 μl fresh DMEM with antibiotics is added to the mixture and vortexed. The medium on the cells was then completely removed and immediately, the 500 μl transfection mix was added carefully to each well. The 12 well plate was rocked to ensure a proper distribution of the DNA/transfection reagent complex. After an incubation of the cells for 24 h at a 37° C. in a humidified CO2-incubator (5%) the cells were lysed in 150 μl Laemmli (2×) gel loading buffer (160 mM Tris-HCL, pH 6.8, 4% (w/v) sodium dodecyl sulphate (SDS), 20% (v/v) glycerol, 0.5% β-mercaptoethanol (v/v), 0.008% (w/v) bromophenol blue) and incubated for 10 min at 95° C. For western blot analysis the proteins were separated by SDS-PAGE, blotted on a PVDF membrane and developed with specific primary antibodies (α-Ubc9 (H81, Santa Cruz), α-pY701-STAT1 (Tyr701, Cell Signaling), α-STAT1 (Cell Signaling), α-p53 (1C12, Cell Signaling), α-SUMO1 (Cell Signaling), a horseradish peroxidase (HRP)-conjugated secondary antibody (different companies), the ECL+ (Amersham) or Immobilon™ Western (Millipore) and the LAS-3000 imaging system (Fuji).
As shown above, the SUMOylation of a protein of interest can be induced by the heterodimerisation with a binding protein fused to Ubc9. To find out if Trans-SUMOylation is useful for the characterisation of common protein interactions, protein binding pairs well known from the literature or found in two hybrid screens. […] Therefore the protein pairs were coexpressed with EGFP-SUMO1 in HEK293 cells and after 24h the transfectants were lysed and the protein extracts were analyzed in western blots.
Protein-protein interactions described in the cited references were tested for Trans-SUMOylation. Each specific protein-protein interaction was tested by coexpression of different combinations of protein 1 fused to Ubc9 (U) with protein 2 mostly fused two a tag (HA, FLAG, Myc, GST, ST). (++), strong TransSUMOylation; (+), TransSUMOylation; (+/−) weak TransSUMOylation; (−) no detectable TransSUMOylation; (MEKK1ca) the activated MAP3 kinase MEKK1, that can enhance protein SUMOylation, was coexpressed.
Protein-protein interaction of each pair of protein 1/protein 2 was tested by coexpression of different combinations of a protein 1 fused to Ubc9 (U) with protein 2 mostly fused two a Tag (HA, FLAG, GST, ST). […]

MK2-U = molecular target: T10, MK2-U (Homo sapiens, UniProt P49137+P63279); assay: Trans-SUMOylation by MK2-U; settings: protein 2 construct coexpressed with MK2-U and EGFP-SUMO1 in HEK293; western blot; Table 2
T10 construct: expressed in transfected cells; host or cells: HEK293

U-TAF10 = molecular target: T11, U-TAF10 (Homo sapiens, UniProt P63279+Q12962); assay: Trans-SUMOylation by U-TAF10; parameters: key: (++), strong TransSUMOylation; (+), TransSUMOylation; (+/−) weak TransSUMOylation; (−) no detectable TransSUMOylation; settings: protein 2 construct coexpressed with U-TAF10 and EGFP-SUMO1 in HEK293; western blot; Table 2
T11 construct: Ubc9 (fusion partner); expressed in transfected cells; host or cells: HEK293
Text: as §1, §2

T10 sequence (P49137+P63279 fused): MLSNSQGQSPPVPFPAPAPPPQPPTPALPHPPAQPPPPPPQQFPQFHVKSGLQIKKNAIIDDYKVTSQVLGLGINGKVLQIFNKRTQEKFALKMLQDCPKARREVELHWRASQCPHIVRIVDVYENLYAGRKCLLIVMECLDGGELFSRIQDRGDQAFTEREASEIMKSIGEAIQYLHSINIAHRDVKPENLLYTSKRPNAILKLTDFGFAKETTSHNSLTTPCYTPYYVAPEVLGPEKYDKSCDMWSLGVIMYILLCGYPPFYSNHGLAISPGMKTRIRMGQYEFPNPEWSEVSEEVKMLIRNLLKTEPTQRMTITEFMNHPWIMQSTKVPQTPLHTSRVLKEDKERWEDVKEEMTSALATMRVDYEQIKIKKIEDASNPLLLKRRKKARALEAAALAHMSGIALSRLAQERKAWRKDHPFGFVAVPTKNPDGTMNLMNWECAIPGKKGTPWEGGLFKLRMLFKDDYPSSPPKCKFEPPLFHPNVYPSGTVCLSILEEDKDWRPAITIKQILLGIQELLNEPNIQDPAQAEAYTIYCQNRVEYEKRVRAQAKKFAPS
T11 sequence (P63279+Q12962 fused): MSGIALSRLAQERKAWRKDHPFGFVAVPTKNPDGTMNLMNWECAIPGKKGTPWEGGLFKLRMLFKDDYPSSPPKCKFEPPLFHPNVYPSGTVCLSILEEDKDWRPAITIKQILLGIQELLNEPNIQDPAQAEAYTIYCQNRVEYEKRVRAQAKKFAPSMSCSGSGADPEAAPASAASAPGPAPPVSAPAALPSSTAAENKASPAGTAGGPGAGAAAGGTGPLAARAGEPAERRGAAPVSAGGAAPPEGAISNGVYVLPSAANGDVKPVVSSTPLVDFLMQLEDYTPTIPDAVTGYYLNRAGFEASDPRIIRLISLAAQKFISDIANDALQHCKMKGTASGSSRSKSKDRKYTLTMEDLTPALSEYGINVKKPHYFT
T9 sequence (P63279+Q8IW41 fused): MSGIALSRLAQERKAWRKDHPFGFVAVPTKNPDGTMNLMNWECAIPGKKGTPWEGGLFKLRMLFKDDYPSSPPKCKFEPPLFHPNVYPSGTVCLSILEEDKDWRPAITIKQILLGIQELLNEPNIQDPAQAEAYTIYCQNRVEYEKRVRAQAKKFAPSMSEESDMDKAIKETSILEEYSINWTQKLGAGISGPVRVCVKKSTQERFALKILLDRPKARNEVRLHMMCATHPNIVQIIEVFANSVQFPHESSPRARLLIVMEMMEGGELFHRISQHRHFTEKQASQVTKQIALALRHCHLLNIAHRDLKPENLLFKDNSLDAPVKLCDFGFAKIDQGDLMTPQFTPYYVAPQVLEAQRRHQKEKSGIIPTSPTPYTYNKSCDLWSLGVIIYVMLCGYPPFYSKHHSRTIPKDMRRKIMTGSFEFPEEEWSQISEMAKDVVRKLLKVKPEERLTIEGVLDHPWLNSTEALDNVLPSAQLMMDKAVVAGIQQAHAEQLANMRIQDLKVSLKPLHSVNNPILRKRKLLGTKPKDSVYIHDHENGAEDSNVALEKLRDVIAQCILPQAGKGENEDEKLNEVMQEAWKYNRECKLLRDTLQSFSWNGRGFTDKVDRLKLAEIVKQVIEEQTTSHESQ
T2 sequence (P11802+P63279 fused): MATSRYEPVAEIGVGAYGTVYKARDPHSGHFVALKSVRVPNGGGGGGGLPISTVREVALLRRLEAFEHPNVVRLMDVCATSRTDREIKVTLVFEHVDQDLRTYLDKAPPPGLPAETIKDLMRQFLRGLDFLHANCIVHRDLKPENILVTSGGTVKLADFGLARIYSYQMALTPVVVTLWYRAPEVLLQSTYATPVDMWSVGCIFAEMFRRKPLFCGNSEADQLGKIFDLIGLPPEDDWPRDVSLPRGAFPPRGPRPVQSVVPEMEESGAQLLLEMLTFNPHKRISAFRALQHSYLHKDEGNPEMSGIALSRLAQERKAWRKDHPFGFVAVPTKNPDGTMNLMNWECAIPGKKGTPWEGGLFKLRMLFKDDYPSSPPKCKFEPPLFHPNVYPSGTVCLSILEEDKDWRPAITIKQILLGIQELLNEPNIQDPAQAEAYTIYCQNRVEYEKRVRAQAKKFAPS
T5 sequence (P28482+P63279 fused): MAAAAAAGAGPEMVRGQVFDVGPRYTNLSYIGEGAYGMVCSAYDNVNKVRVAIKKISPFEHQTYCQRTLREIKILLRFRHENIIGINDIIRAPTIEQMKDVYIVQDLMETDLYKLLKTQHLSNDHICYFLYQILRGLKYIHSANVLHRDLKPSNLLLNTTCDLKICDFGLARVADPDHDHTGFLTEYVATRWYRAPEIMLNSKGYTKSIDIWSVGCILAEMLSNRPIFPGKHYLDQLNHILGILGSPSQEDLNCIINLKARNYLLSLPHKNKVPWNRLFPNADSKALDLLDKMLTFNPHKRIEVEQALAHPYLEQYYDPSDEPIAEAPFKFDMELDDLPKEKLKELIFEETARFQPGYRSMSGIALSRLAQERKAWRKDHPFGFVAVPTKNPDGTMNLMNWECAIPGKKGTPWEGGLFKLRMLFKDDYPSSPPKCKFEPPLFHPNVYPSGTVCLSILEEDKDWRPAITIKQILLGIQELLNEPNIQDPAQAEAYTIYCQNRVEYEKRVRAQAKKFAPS
T3 sequence (O43513+P63279 fused): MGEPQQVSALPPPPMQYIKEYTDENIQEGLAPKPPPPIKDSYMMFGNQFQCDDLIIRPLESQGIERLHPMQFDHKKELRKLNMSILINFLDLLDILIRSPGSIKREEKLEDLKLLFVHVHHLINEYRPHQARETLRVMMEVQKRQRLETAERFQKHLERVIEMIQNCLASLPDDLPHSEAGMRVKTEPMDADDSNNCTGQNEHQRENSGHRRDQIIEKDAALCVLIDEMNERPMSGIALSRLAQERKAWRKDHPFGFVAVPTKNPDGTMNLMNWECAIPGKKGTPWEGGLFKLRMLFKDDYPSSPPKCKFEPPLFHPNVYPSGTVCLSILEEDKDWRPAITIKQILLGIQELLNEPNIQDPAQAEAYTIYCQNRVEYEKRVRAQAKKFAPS
T7 sequence (P63279+Q16539 fused): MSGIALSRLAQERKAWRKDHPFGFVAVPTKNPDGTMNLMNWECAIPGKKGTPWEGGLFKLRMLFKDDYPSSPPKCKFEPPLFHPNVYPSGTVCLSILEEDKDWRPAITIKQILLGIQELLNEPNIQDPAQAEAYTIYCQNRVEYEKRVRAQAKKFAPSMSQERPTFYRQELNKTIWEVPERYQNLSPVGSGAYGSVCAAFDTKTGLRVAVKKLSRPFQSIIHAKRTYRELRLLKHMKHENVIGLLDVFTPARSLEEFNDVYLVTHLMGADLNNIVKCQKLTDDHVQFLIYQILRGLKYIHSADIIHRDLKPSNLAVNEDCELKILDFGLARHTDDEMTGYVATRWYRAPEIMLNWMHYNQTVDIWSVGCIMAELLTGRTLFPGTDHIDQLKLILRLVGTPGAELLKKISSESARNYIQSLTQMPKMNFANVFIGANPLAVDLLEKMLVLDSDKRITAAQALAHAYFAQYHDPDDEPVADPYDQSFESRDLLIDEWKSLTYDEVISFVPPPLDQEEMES
T4 sequence (P63279+P28482 fused): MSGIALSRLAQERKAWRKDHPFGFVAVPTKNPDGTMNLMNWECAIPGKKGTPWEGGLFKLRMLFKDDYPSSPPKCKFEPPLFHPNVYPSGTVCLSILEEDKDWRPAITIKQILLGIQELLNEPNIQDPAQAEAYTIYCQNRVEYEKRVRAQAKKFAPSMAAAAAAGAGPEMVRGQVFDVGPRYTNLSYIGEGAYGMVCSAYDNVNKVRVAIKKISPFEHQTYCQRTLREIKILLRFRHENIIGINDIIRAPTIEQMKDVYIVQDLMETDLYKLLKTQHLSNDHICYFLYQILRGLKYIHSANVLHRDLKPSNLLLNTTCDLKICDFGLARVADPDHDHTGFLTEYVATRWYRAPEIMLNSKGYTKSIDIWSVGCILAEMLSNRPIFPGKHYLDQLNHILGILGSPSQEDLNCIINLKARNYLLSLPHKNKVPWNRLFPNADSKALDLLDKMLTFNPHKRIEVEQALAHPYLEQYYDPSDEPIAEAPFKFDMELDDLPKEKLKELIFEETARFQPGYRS
T1 sequence (P63279+Q16543 fused): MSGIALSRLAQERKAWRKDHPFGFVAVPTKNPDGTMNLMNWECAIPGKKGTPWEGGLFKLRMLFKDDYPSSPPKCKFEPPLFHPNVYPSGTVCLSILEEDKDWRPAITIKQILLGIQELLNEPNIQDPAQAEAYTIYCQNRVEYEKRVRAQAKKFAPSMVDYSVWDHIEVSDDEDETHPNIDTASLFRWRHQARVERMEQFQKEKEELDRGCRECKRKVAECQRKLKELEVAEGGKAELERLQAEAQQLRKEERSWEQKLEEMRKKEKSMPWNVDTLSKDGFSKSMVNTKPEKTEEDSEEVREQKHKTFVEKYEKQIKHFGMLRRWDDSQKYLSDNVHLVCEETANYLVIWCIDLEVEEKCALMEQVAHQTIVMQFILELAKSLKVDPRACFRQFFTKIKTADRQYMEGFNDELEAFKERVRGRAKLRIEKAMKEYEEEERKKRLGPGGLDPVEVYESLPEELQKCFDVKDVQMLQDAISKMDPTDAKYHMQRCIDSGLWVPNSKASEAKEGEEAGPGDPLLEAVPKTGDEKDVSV

Trans-SUMOylation (U-CDC37): + | Trans-SUMOylation (CDK4-U): +
Substance: GST-CDC37: CDC37 fused to GST tag

Trans-SUMOylation (CRSP9-U): −
Substance: GST-CRSP9: CRSP9 fused to GST tag

Trans-SUMOylation (U-ERK2): − | Trans-SUMOylation (ERK2-U): − | Trans-SUMOylation (MEK2-U): + | Trans-SUMOylation (U-p38α): − | Trans-SUMOylation (U-MEK2): + | Trans-SUMOylation (U-MK5): −
Substance: GST-ERK2: ERK2 fused to GST tag

Trans-SUMOylation (MK2-U): − | Trans-SUMOylation (U-TAF10): (+/−)
Substance: GST-TAF10: TAF10 fused to GST tag

Source: patent publication US8551717B2, “Method for determining sumoylation” (Medizinische Hochschule Hannover, priority 2008, dated 2013)
